One block for each binder: values may come before it.
Columns and labels:
[1] = target: T1, mouse insulin receptor complexed with human insulin (mouse; human, UniProt P15208 28-1372; P01308 25-54; P01308 90-110); test: FACS, CHO-K1 mouse INSR cells, signal with insulin divided by signal without insulin
T1 construct: whole, on cells;mature; also called muINSR/hINS complex
Procedure: (§1) Twenty five microliter aliquots of cells were plated into 96 well plates, mixed with 25 ul of antibody or PPE and incubated on ice for 1 h.
(§2) The cells were then washed once with FACS buffer and the binding of the antibody was detected by the addition of 25 ul of an appropriate fluorochrome-conjugated secondary antibody. […] After a final 15 min incubation on ice the cells were washed and the pellets resuspended in FACS buffer. The cells were analyzed on a FACSCAN™ (Becton-Dickinson, Milipitas, Calif.) and the data analyzed in both FLOWJO™ (Treestar, Ashland, Oreg.) and Microsoft Excel™.

human insulin receptor = target: T2, human insulin receptor (human, UniProt P06213 28-1382); test: FACS, serum-starved CHO-K1 cells expressing human INSR, no insulin
T2 construct: whole, on cells; Uncomplexed receptor on serum-starved cells (CHOK1 transfectants or IM-9); also called hINSR; INSR
Procedure: as §1, §2

mouse insulin receptor [2] = target: T3, mouse insulin receptor (mouse, UniProt P15208 28-1372); test: FACS, serum-starved CHO-K1 cells expressing mouse INSR, no insulin
T3 construct: whole, on cells; also called muINSR; mINSR

[3] = target: T4, human insulin receptor complexed with human insulin (human, UniProt P06213 28-1382; P01308 25-54; P01308 90-110); test: FACS, CHO-K1 human INSR cells, signal with insulin divided by signal without insulin
T4 construct: whole, on cells;mature; also called hINSR-hINS complex; INS/INSR complex
Procedure: as §1, §2

[4] = target: T1, mouse insulin receptor complexed with …; test: FACS, serum-starved CHO-K1 cells expressing mouse INSR, with insulin
Procedure: as §1, §2

[5] = target: T4, human insulin receptor complexed with …; test: FACS, serum-starved CHO-K1 cells expressing human INSR, with insulin
Procedure: as §1, §2

mouse insulin receptor [6] = target: T3, mouse insulin receptor; test: FACS, serum-starved CHO-K1 cells expressing mouse INSR, no insulin [cont'd]
Procedure: as §1, §2

[7] = target: T1, mouse insulin receptor complexed with …; test: FACS, serum-starved CHO-K1 cells expressing mouse INSR, with insulin [cont'd]
Procedure: as §1, §2

[8] = target: T1, mouse insulin receptor complexed with …; test: FACS, CHO-K1 mouse INSR cells, signal with insulin divided by signal without insulin [cont'd]
Procedure: as §1, §2

FACS area under log transformed data MFI ratio (+insulin/-insulin) [1]: 0.76
FACS area under log transformed data MFI (human insulin receptor): 1560
FACS area under log transformed data MFI (mouse insulin receptor [2]): 1520
FACS area under log transformed data MFI ratio (+insulin/-insulin) [3]: 0.74
FACS area under log transformed data MFI [4]: 1140
FACS area under log transformed data MFI [5]: 1160
B5: Ab066 (antibody, IgG2, V domains shown)
VH: EVQLVQSGAEVKKPGSSVKVSCKASGGTFSSYAISWVRQAPGQGLEWMGGIIPIFGTANYAQKFQGRVTITADKSTSTAYMELSRLRSDDTAVYYCARDASYGGNSEGFDYWGQGTLVTVSS
VL: SSELTQDPAVSVAVGQSVRITCQGDSLKNFYATWYQQRPGQAPLLVIFGKNNRPSGIPDRFSGSSSGNTASLTVTGAQADDEADYYCNSPDSSNKLVVFGGGTKLTVL
notes: also called XPA.015.215

FACS area under log transformed data MFI ratio (+insulin/-insulin) [1]: 0.55
FACS area under log transformed data MFI (human insulin receptor): 1420
FACS area under log transformed data MFI (mouse insulin receptor [2]): 803
FACS area under log transformed data MFI ratio (+insulin/-insulin) [3]: 0.72
FACS area under log transformed data MFI [4]: 445
FACS area under log transformed data MFI [5]: 1030
B6: Ab068 (antibody, IgG2, V domains shown)
VH: EVQLVQSGAEVKQPGSSVKVSCKASGGSFNSYTFSWVRQAPGQGLEWMGWISAYNGGTNYFANYALKFQGRVTMTTDTSTGTAYMELRSLRSDDTAVYYCARVRDSWSHEDYSYYYYMDVWGKGTTVTVSS
VL: DVVMTQTPLSLSVTPGQPASISCKASQSLLYTNGDTYVSWYVQKPGQAPQLLFSDVSSRFFGVPDRFSASGSGTDFTLKISRVEAEDVGVYYCVQAMYLPLVFGQGTKVEIK
notes: also called XPA.015.217

FACS area under log transformed data MFI ratio (+insulin/-insulin) [1]: 0.8
FACS area under log transformed data MFI (human insulin receptor): 1710
FACS area under log transformed data MFI (mouse insulin receptor [2]): 1020
FACS area under log transformed data MFI ratio (+insulin/-insulin) [3]: 0.74
FACS area under log transformed data MFI [4]: 813
FACS area under log transformed data MFI [5]: 1270
B7: Ab064 (antibody, IgG2, V domains shown)
VH: QVQLVQSGAEVKKPGESLKISCKGSGFSFPSYWIGWVRQMPGKGLELVGIIYPGDSDIRYSPSFQGQVTISADTSISTVYLQWSSLQTTDTATYYCARGGFNWFDPWGQGTLVTVSS
VL: QAVVTQEPSLTVSPGGTVTLTCASSTGAVTSGYYPNWFQQKPGQAPRALIYSTSNKHSWTPARFSGSLLGGKAALTLSGVQPEDEAEYYCLLYYGGAQPWVFGGGTQLTVL
notes: also called XPA.015.213

FACS area under log transformed data MFI (mouse insulin receptor [6]): 189
FACS area under log transformed data MFI [7]: 125
FACS area under log transformed data MFI ratio (+insulin/-insulin) [8]: 0.66
B12: Ab081 (antibody, IgG2, V domains shown)
VH: EVQLVETGGGVVQPGRSLRLSCAASGFTFSSYAMHWVRQAPGKGLEWVAVISYDGSNKYYADSVKGRFTISRDNSKNTLYLQMNSLRAEDTAVYYCARHEWGFGMDVWGQGTTVTVSS
VL: DVVMTQSPLSLSVTLGQPASISCRSSLSLVYGDENTYLNWFQQRPGQSPRRLLYKVSDRDSGVPDRFSGSGSGTDFTLKISRVEADDVGVYYCMQGTHWPYTFGQGTKLEIK
notes: Negative modulator; also called XPA.015.247

FACS area under log transformed data MFI ratio (+insulin/-insulin) [1]: 0.61
FACS area under log transformed data MFI (human insulin receptor): 1540
FACS area under log transformed data MFI (mouse insulin receptor [2]): 1280
FACS area under log transformed data MFI ratio (+insulin/-insulin) [3]: 0.69
FACS area under log transformed data MFI [4]: 786
FACS area under log transformed data MFI [5]: 1060
B13: Ab067 (antibody, V domains shown)
VH: EVQLVQSGAEVKKPGSSVKVSCKASGGTFSSYAISWVRQAPGQGLEWMGGIIPIFGTANYAQKFQGRVTITADESTSTAYMELSSLRSEDTAVYYCARASGDYDFWSGYYGAEYFQHWGQGTLVTVSS
VL: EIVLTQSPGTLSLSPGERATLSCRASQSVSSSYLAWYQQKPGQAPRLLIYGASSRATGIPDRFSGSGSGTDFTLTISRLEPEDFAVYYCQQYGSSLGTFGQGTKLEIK
notes: also called XPA.015.216

The next lines start with the binder.

B1: Ab058 (antibody, IgG2, V domains shown)
VH: QLQLQQWGAGLLKPSETLSLTCAVYSGSFSGYYYSWIRQSPGRGLEWIGDISHTGSTDYNPSLKTRVTISVDTSKNQFSLNLNSVTAADTAVYYCARDAPKGGSGLYLFDYWGQGTLVTVSS
VL: QSVLTQPPSVSGAPGQRVTISCTGSRSNIGADHDVHWYQQIPGRAPKLLIYGNSNRPSGVPDRFSGSRSGTSASLAITGLQAEDEADYYCQSYDNSLSGSVFGGGTKLTVL
notes: also called XPA.015.202
FACS area under log transformed data MFI ratio (+insulin/-insulin) [1]: 0.48
FACS area under log transformed data MFI (human insulin receptor): 1410
FACS area under log transformed data MFI (mouse insulin receptor [2]): 812
FACS area under log transformed data MFI ratio (+insulin/-insulin) [3]: 0.26
FACS area under log transformed data MFI [4]: 388
FACS area under log transformed data MFI [5]: 370

B2: Ab052 (antibody, IgG2, V domains shown)
VH: EVQLVQSGAEVKKPGESLKISCKGSGYRFTSYWIGWVRQMPGRGLEWMGIIYPGDSDTRYSPSFQGQVTISVDKSISTAYLQWSSLKASDTAMYYCATHHASGRGLDPWGQGTLVTVSS
VL: QAMLTQPASLSASPGASASLTCTLRSGINVVAYNIYWYRQKSGSPPQSVLRYKSDSDSERDSGVPSRFSGSKDVSANAGILLISGLQSEDEADYYCLIWHNSAWVFGGGTQLTVL
notes: also called XPA.015.195
FACS area under log transformed data MFI ratio (+insulin/-insulin) [1]: 0.45
FACS area under log transformed data MFI (human insulin receptor): 445
FACS area under log transformed data MFI (mouse insulin receptor [2]): 892
FACS area under log transformed data MFI [4]: 397

B3: Ab055 (antibody, IgG2, V domains shown)
VH: QVQLVQSGAEVKKPGSSVKVSCKASGGTFSSYAISWVRQAPGQGLEWMGGIIPIFGTANYAQKFQGRVTITADESTSTAYMELSSLRSEDTAVYYCARGQGWLRFYGMDVWGQGTTVTVSS
VL: SYELTQLPSVSVSPGQTARITCSGDALPNKYAYWYQQKSGQAPVLVIYEDTRRPSEIPERFSASSSGTMATLTISGAQVEDEAEYYCYSTDSSGNERVFGGGTKLTVL
notes: also called XPA.015.198
FACS area under log transformed data MFI ratio (+insulin/-insulin) [1]: 0.81
FACS area under log transformed data MFI (human insulin receptor): 1190
FACS area under log transformed data MFI (mouse insulin receptor [2]): 1300
FACS area under log transformed data MFI ratio (+insulin/-insulin) [3]: 0.64
FACS area under log transformed data MFI [4]: 1050
FACS area under log transformed data MFI [5]: 759

B4: Ab056 (antibody, IgG2, V domains shown)
VH: QVQLVQSGSEVKKPGASVKVSCKASGYTFTNSYMHWVRQAPGQGLEWMGIINPSAGTSYAQKFQGRVTMTRDTSTSTVYMELSSLKSEDTAVYYCARDVGWLPGDYWGQGTLVTVSS
VL: QSALTQPASVSESPGQSITISCTGTGSDIGTYNLVSWYQHHPGKAPKLMIYEVTKRPSGVSNRFSGSKSGNTASLTISGLQAEDEADYYCSSYTSSSTLYVFGTGTKLTVL
notes: also called XPA.015.199
FACS area under log transformed data MFI (human insulin receptor): 1110
FACS area under log transformed data MFI ratio (+insulin/-insulin) [3]: 0.84
FACS area under log transformed data MFI [5]: 927

B8: Ab060 (antibody, IgG2, V domains shown)
VH: QMQLVQSGAEVKKPGSSVKVSCKASGGTFSSYAISWVRQAPGQGLEWMGIINPSGGSTSYAQKFQGRVTMTRDRSTSTVYMELSSLTSEDTAVYYCVRDNHGWSFDYWGQGTLVTVSS
VL: QAVLTQPASLSASPGESARLTCTLPSDINVRYYNIYWYQQKPGSPPRYLLYYYSDSNKDQGSGVPSRFSGSKDVSTNTGILVISGLQSEDEAEYYCMTWSSNGSGVFGGGTQLTVL
notes: also called XPA.015.207
FACS area under log transformed data MFI ratio (+insulin/-insulin) [1]: 1.85
FACS area under log transformed data MFI (human insulin receptor): 460
FACS area under log transformed data MFI (mouse insulin receptor [2]): 210
FACS area under log transformed data MFI ratio (+insulin/-insulin) [3]: 0.67
FACS area under log transformed data MFI [4]: 388
FACS area under log transformed data MFI [5]: 308

B9: Ab051 (antibody, IgG2, V domains shown)
VH: QVQLVQSGAEVKKPGSSVKVSCKASGGTFSSYAISWVRQAPGQGLEWMGGIIPIFGTANYAQKFQGRVTITADESTSTAYMELSSLRSEDTAVYYCAGKLYSRDYWYFDLWGRGTLVTVSS
VL: SSELTQDPAVSVALGQTVRITCQGNSLRSFYATWYQQKPGQAPVLVIYGKNIRPSGIPDRFSGSNSGDTASLTITGTQAEDEADYYCNSRDNNRNHLLFAGGTKVTVL
notes: also called XPA.015.194
FACS area under log transformed data MFI ratio (+insulin/-insulin) [1]: 0.71
FACS area under log transformed data MFI (human insulin receptor): 554
FACS area under log transformed data MFI (mouse insulin receptor [2]): 663
FACS area under log transformed data MFI ratio (+insulin/-insulin) [3]: 0.68
FACS area under log transformed data MFI [4]: 470
FACS area under log transformed data MFI [5]: 378

B10: Ab054 (antibody, IgG2, V domains shown)
VH: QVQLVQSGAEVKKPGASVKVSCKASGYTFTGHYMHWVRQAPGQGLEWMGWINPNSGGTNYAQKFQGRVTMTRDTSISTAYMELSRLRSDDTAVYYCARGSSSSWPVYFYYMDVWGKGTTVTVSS
VL: QSALTQPRSVSESPGKTVTISCTGSGGSIGSNYVQWYQQRPGSAPTTVIFEDNRRPSGVPDRFSGSIHSSSNSASLTISGLKTEDEADYYCQSYVGTIVVFGGGTKVTVL
notes: also called XPA.015.197
FACS area under log transformed data MFI ratio (+insulin/-insulin) [1]: 0.51
FACS area under log transformed data MFI (human insulin receptor): 1130
FACS area under log transformed data MFI (mouse insulin receptor [2]): 1030
FACS area under log transformed data MFI ratio (+insulin/-insulin) [3]: 0.32
FACS area under log transformed data MFI [4]: 519
FACS area under log transformed data MFI [5]: 356

B11: Ab063 (antibody, IgG2, V domains shown)
VH: QVQLQQSGPGLVKPSQTLSLTCAISGDSVSSNSAAWNWIRQSPSRGLEWLGRTYYRSKWYTDYALSVKSRITINPDTSKNQFSLHLNSVTPEDTAVYYCAREGWLGYFDFWGQGTLVTVSS
VL: SSELTQPPSVSVAPGKTATITCGGDNIASKSVHWYQQKPGQAPVLVLYDDSVRPSDIPERFSGSNSANTATLTLTRVEAGDEGEYYCQVWDVRSDHPFFGPGTKVTVL
notes: also called XPA.015.212
FACS area under log transformed data MFI ratio (+insulin/-insulin) [1]: 0.72
FACS area under log transformed data MFI (human insulin receptor): 943
FACS area under log transformed data MFI (mouse insulin receptor [2]): 1020
FACS area under log transformed data MFI ratio (+insulin/-insulin) [3]: 0.71
FACS area under log transformed data MFI [4]: 733
FACS area under log transformed data MFI [5]: 674

Reference: patent US20160009800A1 (XOMA US, published 2016)
